According to US20140322759:
Residue numbers refer to the chain shown, from its start.

Experiments:
Test in all cases: EMSA
[1] = biological target: T1, phi29 DNA polymerase Q497P Q497P (Bacillus phage phi29) (UniProt P03680); conditions: SD 50.2; unit not given (μM in assay); pH 7.9, 66 mM K-acetate, 30 C
T1 sequence: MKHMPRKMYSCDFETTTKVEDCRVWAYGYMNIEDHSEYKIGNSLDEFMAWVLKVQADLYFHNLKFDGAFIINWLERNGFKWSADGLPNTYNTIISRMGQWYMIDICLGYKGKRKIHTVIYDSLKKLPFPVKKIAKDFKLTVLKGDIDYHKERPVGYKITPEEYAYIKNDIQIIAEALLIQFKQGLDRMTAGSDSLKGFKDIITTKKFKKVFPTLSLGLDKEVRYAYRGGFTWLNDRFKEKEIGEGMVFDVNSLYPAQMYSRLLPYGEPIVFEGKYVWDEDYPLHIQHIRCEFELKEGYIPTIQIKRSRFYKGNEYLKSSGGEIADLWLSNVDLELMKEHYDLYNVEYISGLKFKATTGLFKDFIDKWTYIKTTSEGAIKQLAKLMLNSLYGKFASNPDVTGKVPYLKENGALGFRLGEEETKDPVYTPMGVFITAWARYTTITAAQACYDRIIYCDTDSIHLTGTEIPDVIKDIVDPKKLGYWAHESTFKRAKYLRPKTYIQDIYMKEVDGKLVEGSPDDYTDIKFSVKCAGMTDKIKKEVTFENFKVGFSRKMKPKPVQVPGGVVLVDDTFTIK

[2] = biological target: T2, phi29 DNA polymerase Mut_4 M8R,V51A,M97T,G197D,E221K (Bacillus phage phi29) (UniProt P03680); conditions: SD 10.6; unit not given (μM in assay); pH 7.9, 66 mM K-acetate, 30 C
T2 sequence: T1 sequence with M8R, V51A, M97T, G197D, E221K, P497Q

[3] = biological target: T3, phi29 DNA polymerase Mut_5 M8R,V51A,M97T,G197D,E221K,Q497P,K512E,F526L (Bacillus phage phi29) (UniProt P03680); conditions: SD 7.4; unit not given (μM in assay); pH 7.9, 66 mM K-acetate, 30 C
T3 sequence: T1 sequence with M8R, V51A, M97T, G197D, E221K, K512E, F526L

[4] = biological target: T4, phi29 DNA polymerase F526L F526L (Bacillus phage phi29) (UniProt P03680); conditions: SD 24.2; unit not given (μM in assay); pH 7.9, 66 mM K-acetate, 30 C
T4 sequence: T1 sequence with P497Q, F526L

## GATCACAGTGAGTAC / TCTATTGTACTCACTGTGATC [15-mer/21-mer primer/template]
[1]
  Kd: 73 µM
[2]
  Kd: 67 µM
[3]
  Kd: 23 µM
[4]
  Kd: 53 µM
